Measurements: paper PMC7442826 (2020)
One block for each binder: values may come before it.

B4: EHBP1 bMERB domain (bMERB_(1060-1212), full-length bMERB domain) (domain or fragment)
chain: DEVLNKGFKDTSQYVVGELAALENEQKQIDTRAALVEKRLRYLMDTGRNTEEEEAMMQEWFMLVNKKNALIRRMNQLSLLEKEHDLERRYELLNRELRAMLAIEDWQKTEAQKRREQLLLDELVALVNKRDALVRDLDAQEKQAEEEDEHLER

Tests used:
[1] = target: B4; test: ITC
[2] = target: B4; test: displacement by GppNHp Rab8a
[3] = target: EHBP1 full-length bMERB domain M1103A (human, UniProt Q8NDI1-1 1060-1212, M1103 to alanine); test: ITC
[4] = target: EHBP1 full-length bMERB domain M1116A (human, UniProt Q8NDI1-1 1060-1212, M1116A); test: ITC
EHBP1 full-length bMERB domain M1116A, sequence (Q8NDI1 1060-1212 M1116A): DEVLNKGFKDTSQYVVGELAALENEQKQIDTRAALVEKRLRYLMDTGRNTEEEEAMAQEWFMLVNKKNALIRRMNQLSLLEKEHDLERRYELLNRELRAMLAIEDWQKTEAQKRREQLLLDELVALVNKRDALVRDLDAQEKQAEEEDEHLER

EHBP1 CH domain Q542A = EHBP1 CH domain Q542A (human, UniProt Q8NDI1-1 440-550, Q542 to alanine); test: ITC
EHBP1 CH domain Q542A, sequence (Q8NDI1 1060-1212, stated change not applied): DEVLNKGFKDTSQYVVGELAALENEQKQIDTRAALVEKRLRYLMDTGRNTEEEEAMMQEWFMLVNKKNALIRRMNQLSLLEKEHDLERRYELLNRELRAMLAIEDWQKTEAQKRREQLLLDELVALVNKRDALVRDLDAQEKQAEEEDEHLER

EHBP1 CH domain Y541A = EHBP1 CH domain Y541A (human, UniProt Q8NDI1-1 440-550, Y541 to alanine); test: ITC
EHBP1 CH domain Y541A, sequence (Q8NDI1 1060-1212, stated change not applied): as above

EHBP1 CH domain M537A = EHBP1 CH domain M537A (human, UniProt Q8NDI1-1 440-550, M537 to alanine); test: ITC
EHBP1 CH domain M537A, sequence (Q8NDI1 1060-1212, stated change not applied): as above

EHBP1 CH domain D532A = EHBP1 CH domain D532A (human, UniProt Q8NDI1-1 440-550, D532 to alanine); test: ITC
EHBP1 CH domain D532A, sequence (Q8NDI1 1060-1212, stated change not applied): as above

[5] = target: Rab8a_(1-176_T72E) (phosphomimetic Rab8a) (human, UniProt P61006 1-176, T72E); test: ITC
[6] = target: EHBP1 bMERB domain L1179S (human, UniProt Q8NDI1-1 1060-1212, L1179S); test: ITC; GppNHp
EHBP1 bMERB domain L1179S, sequence (Q8NDI1 1060-1212 L1179S): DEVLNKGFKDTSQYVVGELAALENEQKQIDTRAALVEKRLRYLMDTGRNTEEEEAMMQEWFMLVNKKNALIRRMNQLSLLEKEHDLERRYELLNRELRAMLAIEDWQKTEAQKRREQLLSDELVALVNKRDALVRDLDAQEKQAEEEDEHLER

[7] = target: EHBP1 bMERB domain N1187A (human, UniProt Q8NDI1-1 1060-1212, N1187A); test: ITC; GppNHp
EHBP1 bMERB domain N1187A, sequence (Q8NDI1 1060-1212 N1187A): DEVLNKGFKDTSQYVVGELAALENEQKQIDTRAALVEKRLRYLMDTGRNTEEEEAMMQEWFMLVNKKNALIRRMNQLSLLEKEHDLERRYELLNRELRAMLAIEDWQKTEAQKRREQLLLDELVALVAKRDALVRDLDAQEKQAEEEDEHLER

[8] = target: EHBP1 bMERB domain L1156S (human, UniProt Q8NDI1-1 1060-1212, L1156S); test: ITC; GppNHp
EHBP1 bMERB domain L1156S, sequence (Q8NDI1 1060-1212 L1156S): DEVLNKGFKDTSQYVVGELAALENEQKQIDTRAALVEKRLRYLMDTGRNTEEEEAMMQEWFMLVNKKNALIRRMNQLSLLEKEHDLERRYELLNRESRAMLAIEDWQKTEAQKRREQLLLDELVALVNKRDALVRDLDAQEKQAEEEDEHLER

[9] = target: EHBP1 bMERB domain R1189A (human, UniProt Q8NDI1-1 1060-1212, R1189A); test: ITC; GppNHp
EHBP1 bMERB domain R1189A, sequence (Q8NDI1 1060-1212 R1189A): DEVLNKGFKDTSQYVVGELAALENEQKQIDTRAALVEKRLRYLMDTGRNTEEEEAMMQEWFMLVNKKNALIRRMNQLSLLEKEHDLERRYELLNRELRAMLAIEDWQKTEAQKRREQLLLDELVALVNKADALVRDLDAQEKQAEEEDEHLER

[10] = target: EHBP1 bMERB domain L1182S (human, UniProt Q8NDI1-1 1060-1212, L1182S); test: ITC; GppNHp
EHBP1 bMERB domain L1182S, sequence (Q8NDI1 1060-1212 L1182S): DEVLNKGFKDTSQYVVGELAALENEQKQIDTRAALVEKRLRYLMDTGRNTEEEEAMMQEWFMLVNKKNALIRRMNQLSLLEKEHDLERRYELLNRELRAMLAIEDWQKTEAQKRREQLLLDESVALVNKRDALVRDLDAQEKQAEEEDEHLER

[11] = target: EHBP1 bMERB domain Q1176A (human, UniProt Q8NDI1-1 1060-1212, Q1176A); test: ITC; GppNHp
EHBP1 bMERB domain Q1176A, sequence (Q8NDI1 1060-1212 Q1176A): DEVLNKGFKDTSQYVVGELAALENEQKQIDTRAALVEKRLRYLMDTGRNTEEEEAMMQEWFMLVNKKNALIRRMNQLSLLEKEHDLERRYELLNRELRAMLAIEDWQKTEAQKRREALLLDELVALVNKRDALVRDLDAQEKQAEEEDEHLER

EHBP1 full-length bMERB domain M1103A, sequence (Q8NDI1 1060-1212 M1103A): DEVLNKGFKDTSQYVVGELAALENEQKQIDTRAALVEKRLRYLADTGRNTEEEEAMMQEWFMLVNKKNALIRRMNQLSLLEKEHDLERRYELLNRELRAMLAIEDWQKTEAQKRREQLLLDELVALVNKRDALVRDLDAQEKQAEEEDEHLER

B1: Rab10_(1-175) (human Rab10 G-domain) (domain or fragment)
chain: MAKKTYDLLFKLLLIGDSGVGKTCVLFRFSDDAFNTTFISTIGIDFKIKTVELQGKKIKLQIWDTAGQERFHTITTSYYRGAMGIMLVYDITNGKSFENISKWLRNIDEHANEDVERMLLGNKCDMDDKRVVPKGKGEQIAREHGIRFFETSAKANINIEKAFLTLAEDILRKTP
Kd [1]: 0.32 µM

Binder: B4
Kd (EHBP1 CH domain Q542A): 3.85 µM
Kd (EHBP1 CH domain Y541A): 5.65 µM
Kd (EHBP1 CH domain M537A): 7.6 µM
Kd (EHBP1 CH domain D532A): 43.5 µM
Kd [5]: 0.4 µM

B5: Rab8a_(1-176) (human Rab8a G-domain) (domain or fragment)
chain: MAKTYDYLFKLLLIGDSGVGKTCVLFRFSEDAFNSTFISTIGIDFKIRTIELDGKRIKLQIWDTAGQERFRTITTAYYRGAMGIMLVYDITNEKSFDNIRNWIRNIEEHASADVEKMILGNKCDVNDKRQVSKERGEKLALDYGIKFMETSAKANINVENAFFTLARDIKAKMDKK
Kd [6]: 3.23 µM
Kd [7]: 1.5 µM
Kd [8]: 14.3 µM
Kd [9]: 6 µM
Kd [10]: 3.04 µM
Kd [11]: 0.33 µM

Next, values leading:

koff [2]: 165 s⁻¹
B2: Cy3 labeled EHBP1 CH domain (domain or fragment)
chain: GRKPNASQSLLVWCKEVTKNYRGVKITNFTTSWRNGLSFCAILHHFRPDLIDYKSLNPQDIKENNKKAYDGFASIGISRLLEPSDMVLLAIPDKLTVMTYLYQIRAHFSGQ
modifications: Cy3 on the N-terminus

Kd [3]: 34.7 µM
Kd [4]: 15.8 µM
B3: EHBP1 CH (calponin homology) domain (domain or fragment)
chain: GRKPNASQSLLVWCKEVTKNYRGVKITNFTTSWRNGLSFCAILHHFRPDLIDYKSLNPQDIKENNKKAYDGFASIGISRLLEPSDMVLLAIPDKLTVMTYLYQIRAHFSGQ
